Here are results for one protein from article PMC4476693, “Role of Subunit Exchange and Electrostatic Interactions on the Chaperone Activity of Mycobacterium leprae HSP18” (PLoS ONE, 2015).

Series [1] deals with the molecule itself. The series is described as follows: SEC; analytical gel filtration (TSK-GEL G4000SWXL, HPLC), 25°C, 0.5 mg/ml protein in 50 mM phosphate buffer pH 7.5, no NaCl; column calibrated with molecular weight standards. Background: Size exclusion chromatography separates by hydrodynamic size, large species first.
Series [2] concerns the molecule itself. The series can be described thus: SEC; analytical gel filtration (TSK-GEL G4000SWXL, HPLC), 25°C, 0.5 mg/ml protein in 50 mM phosphate buffer pH 7.5 with 0.05, 0.15 or 0.5 M NaCl; number of subunits printed for 0.5 M NaCl.

B1: Mycobacterium leprae HSP18 (natural protein, UniProt P12809 1-148, looked up)
chain: MLMRTDPFRELDRFAEQVLGTSARPAVMPMDAWREGEEFVVEFDLPGIKADSLDIDIERNVVTVRAERPGVDPDREMLAAERPRGVFNRQLVLGENLDTERILASYQEGVLKLSIPVAERAKPRKISVDRGNNGHQTINKTAHEIIDA
notes: wild-type small heat shock protein HSP18 (18 kDa antigen) of Mycobacterium leprae; Large homo-oligomer: 29 subunits without NaCl, approximately 12 subunits in 0.5 M NaCl (gel filtration); also called 18 kDa antigen
In the case of B1, the stoichiometry N (as a rule, a count of units in the complex or per binding partner) was 29 subunits in series [1] and about 12 subunits in series [2].
